{"source": "patent EP4541814A1", "about": "(Cytiva BioProcess R&D AB, dated 2025)", "binders": {"B1": {"name": "vh247 (SEQ ID NO:89) (VHH)", "VHH": "QVQLVQSGGGSVQAGGSLRLSCTISGRTLSDYTMGWFRQRPGKEREFVAAISWSGAYTKYADSVKGRFTISRDNAKNTVYLQMNSLKPEDTAVYYCAAGPTGLLSKKATPADYDYWGQGTQVTVSS"}, "B2": {"name": "vh346 (SEQ ID NO:114) (VHH)", "VHH": "QVQLQQSGGGSVQAGGSLRLSCTISGRTLSDYTMGWFRQRPGKERELVAAISWSGAYTKYADSVKGRFTISRDNAKNTVYLQMNSLKPEDTAIYYCAAGPTGLLSKKATPADYDYWGQGTQVTVSS"}, "B3": {"name": "vh261 (SEQ ID NO:107) (VHH)", "VHH": "QVQLQQSGGGSVQAGGSLRLSCTISGRTLSDYTMGWFRQRPGREREFVAAISWSGAYTKYADSVKGRFTISRDNAKNTVYLQMNSLKPEDTAVYYCAAGPTGLLSKKATPADYDYWGQGTQVTVSS"}, "B4": {"name": "vh262 (SEQ ID NO:108) (VHH)", "VHH": "QVQLQQSGGGSVQAGGSLRLSCTISGRTLSDYTMGWFRQRPGKQREFVAAISWSGAYTKYADSVKGRFTISRDNAKNTVYLQMNSLKPEDTAVYYCAAGPTGLLSKKATPADYDYWGQGTQVTVSS"}, "B5": {"name": "vh259 (SEQ ID NO:105) (VHH)", "VHH": "QVQLQQSGGGSVQAGGSLRLSCTISGRTLSDYTMGWFRQRPGGEREFVAAISWSGAYTKYADSVKGRFTISRDNAKNTVYLQMNSLKPEDTAVYYCAAGPTGLLSKKATPADYDYWGQGTQVTVSS"}, "B6": {"name": "vh345 (SEQ ID NO:104) (VHH)", "VHH": "QVQLQQSGGGSVQAGGSLRLSCTISGRTLSDYTMGWFRQAPGKEREFVAAISWSGAYTKYADSVKGRFTISRDNAKNTVYLQMNSLKPEDTAIYYCAAGPTGLLSKKATPADYDYWGQGTQVTVSS"}, "B7": {"name": "vh263 (SEQ ID NO:109) (VHH)", "VHH": "QVQLQQSGGGSVQAGGSLRLSCTISGRTLSDYTMGWFRQRPGKAREFVAAISWSGAYTKYADSVKGRFTISRDNAKNTVYLQMNSLKPEDTAVYYCAAGPTGLLSKKATPADYDYWGQGTQVTVSS"}, "B8": {"name": "vh260 (SEQ ID NO:106) (VHH)", "VHH": "QVQLQQSGGGSVQAGGSLRLSCTISGRTLSDYTMGWFRQRPGQEREFVAAISWSGAYTKYADSVKGRFTISRDNAKNTVYLQMNSLKPEDTAVYYCAAGPTGLLSKKATPADYDYWGQGTQVTVSS"}, "B9": {"name": "vh266 (SEQ ID NO:112) (VHH)", "VHH": "QVQLQQSGGGSVQAGGSLRLSCTISGRTLSDYTMGWFRQRPGKELEFVAAISWSGAYTKYADSVKGRFTISRDNAKNTVYLQMNSLKPEDTAVYYCAAGPTGLLSKKATPADYDYWGQGTQVTVSS"}, "B10": {"name": "vh264 (SEQ ID NO:110) (VHH)", "VHH": "QVQLQQSGGGSVQAGGSLRLSCTISGRTLSDYTMGWFRQRPGKDREFVAAISWSGAYTKYADSVKGRFTISRDNAKNTVYLQMNSLKPEDTAVYYCAAGPTGLLSKKATPADYDYWGQGTQVTVSS"}, "B11": {"name": "vh265 (SEQ ID NO:111) (VHH)", "VHH": "QVQLQQSGGGSVQAGGSLRLSCTISGRTLSDYTMGWFRQRPGKGREFVAAISWSGAYTKYADSVKGRFTISRDNAKNTVYLQMNSLKPEDTAVYYCAAGPTGLLSKKATPADYDYWGQGTQVTVSS"}, "B12": {"name": "vh325 (SEQ ID NO:113) (VHH)", "VHH": "QVQLQQSGGGSVQAGGSLRLSCTISGRTLSDYTMGWFRQRPGKEIEFVAAISWSGAYTKYADSVKGRFTISRDNAKNTVYLQMNSLKPEDTAVYYCAAGPTGLLSKKATPADYDYWGQGTQVTVSS"}}, "experiment_in_all_cases": "SPR (Biacore), polypeptide amine-coupled to CM5, AAV9 analyte; response normalized to SEQ ID NO:80", "key": {"AAV9 viral particles [1]": {"target": "T1, AAV9 viral particles (adeno-associated virus 9)"}, "AAV9 viral particles [2]": {"target": "T1, AAV9 viral particles", "remark": "listed apart in the source"}, "AAV9 viral particles [3]": {"target": "T1, AAV9 viral particles", "remark": "listed apart in the source"}}, "note": "Like-named read-outs stand apart in the source and are kept apart here.", "data": [{"binder": "B1", "values": [{"measurement": "Normalized AAV9 binding capacity (%)", "setting": "AAV9 viral particles [1]", "result": 106, "unit": "%"}]}, {"binder": "B2", "values": [{"measurement": "Normalized AAV9 binding capacity (%)", "setting": "AAV9 viral particles [2]", "result": 100, "unit": "%"}, {"measurement": "Normalized AAV9 binding capacity (%)", "setting": "AAV9 viral particles [3]", "result": 100, "unit": "%"}]}, {"binder": "B3", "values": [{"measurement": "Normalized AAV9 binding capacity (%)", "setting": "AAV9 viral particles [3]", "result": 105, "unit": "%"}]}, {"binder": "B4", "values": [{"measurement": "Normalized AAV9 binding capacity (%)", "setting": "AAV9 viral particles [3]", "result": 104, "unit": "%"}]}, {"binder": "B5", "values": [{"measurement": "Normalized AAV9 binding capacity (%)", "setting": "AAV9 viral particles [3]", "result": 72, "unit": "%"}]}, {"binder": "B6", "values": [{"measurement": "Normalized AAV9 binding capacity (%)", "setting": "AAV9 viral particles [2]", "result": 101, "unit": "%"}, {"measurement": "Normalized AAV9 binding capacity (%)", "setting": "AAV9 viral particles [3]", "result": 101, "unit": "%"}]}, {"binder": "B7", "values": [{"measurement": "Normalized AAV9 binding capacity (%)", "setting": "AAV9 viral particles [3]", "result": 108, "unit": "%"}]}, {"binder": "B8", "values": [{"measurement": "Normalized AAV9 binding capacity (%)", "setting": "AAV9 viral particles [3]", "result": 77, "unit": "%"}]}, {"binder": "B9", "values": [{"measurement": "Normalized AAV9 binding capacity (%)", "setting": "AAV9 viral particles [3]", "result": 115, "unit": "%"}]}, {"binder": "B10", "values": [{"measurement": "Normalized AAV9 binding capacity (%)", "setting": "AAV9 viral particles [3]", "result": 92, "unit": "%"}]}, {"binder": "B11", "values": [{"measurement": "Normalized AAV9 binding capacity (%)", "setting": "AAV9 viral particles [3]", "result": 101, "unit": "%"}]}, {"binder": "B12", "values": [{"measurement": "Normalized AAV9 binding capacity (%)", "setting": "AAV9 viral particles [3]", "result": 97, "unit": "%"}]}]}
